{"source": "paper PMC8929358", "proteins": {"B1": {"name": "SULT1A1*1 (Homo sapiens) (protein)", "chain": "MELIQDTSRPPLEYVKGVPLIKYFAEALGPLQSFQARPDDLLISTYPKSGTTWVSQILDMIYQGGDLEKCHRAPIFMRVPFLEFKAPGIPSGMETLKDTPAPRLLKTHLPLALLPQTLLDQKVKVVYVARNAKDVAVSYYHFYHMAKVHPEPGTWDSFLEKFMVGEVSYGSWYQHVQEWWELSRTHPVLYLFYEDMKENPKREIQKILEFVGRSLPEETVDFVVQHTSFKEMKKNPMTNYTTVPQEFMDHSISPFMRKGMAGDWKTTFTVAQNERFDADYAEKMAGCSLSFRSEL"}, "B2": {"name": "SULT1A1*2 (Homo sapiens; R213H) (protein)", "chain": "B1 chain with R213H"}, "B3": {"name": "UGT 1A9 (Homo sapiens) (protein)", "chain": "GKLLVVPMDGSHWFTMRSVVEKLILRGHEVVVVMPEVSWQLGRSLNCTVKTYSTSYTLEDLDREFKAFAHAQWKAQVRSIYSLLMGSYNDIFDLFFSNCRSLFKDKKLVEYLKESSFDAVFLDPFDNCGLIVAKYFSLPSVVFARGILCHYLEEGAQCPAPLSYVPRILLGFSDAMTFKERVRNHIMHLEEHLLCHRFFKNALEIASEILQTPVTEYDLYSHTSIWLLRTDFVLDYPKPVMPNMIFIGGINCHQGKPLPMEFEAYINASGEHGIVVFSLGSMVSEIPEKKAMAIADALGKIPQTVLWRYTGTRPSNLANNTILVKWLPQNDLLGHPMTRAFITHAGSHGVYESICNGVPMVMMPLFGDQMDNAKRMETKGAGVTLNVLEMTSEDLENALKAVINDKSYKENIMRLSSLHKDRPVEPLDLAVFWVEFVMRHKGAPHLRPAAHDLTWYQYHSLDVIGFLLAVVLTVAFITFKCCAYGYRKCLGKKGRVKKAHKSKTH"}, "B4": {"name": "UGT 1A1 (Homo sapiens) (protein)", "chain": "HAGKILLIPVDGSHWLSMLGAIQQLQQRGHEIVVLAPDASLYIRDGAFYTLKTYPVPFQREDVKESFVSLGHNVFENDSFLQRVIKTYKKIKKDSAMLLSGCSHLLHNKELMASLAESSFDVMLTDPFLPCSPIVAQYLSLPTVFFLHALPCSLEFEATQCPNPFSYVPRPLSSHSDHMTFLQRVKNMLIAFSQNFLCDVVYSPYATLASEFLQREVTVQDLLSSASVWLFRSDFVKDYPRPIMPNMVFVGGINCLHQNPLSQEFEAYINASGEHGIVVFSLGSMVSEIPEKKAMAIADALGKIPQTVLWRYTGTRPSNLANNTILVKWLPQNDLLGHPMTRAFITHAGSHGVYESICNGVPMVMMPLFGDQMDNAKRMETKGAGVTLNVLEMTSEDLENALKAVINDKSYKENIMRLSSLHKDRPVEPLDLAVFWVEFVMRHKGAPHLRPAAHDLTWYQYHSLDVIGFLLAVVLTVAFITFKCCAYGYRKCLGKKGRVKKAHKSKTH"}, "B5": {"name": "UGT 2B7 (Homo sapiens) (protein)", "chain": "GKVLVWAAEYSHWMNIKTILDELIQRGHEVTVLASSASILFDPNNSSALKIEIYPTSLTKTELENFIMQQIKRWSDLPKDTFWLYFSQVQEIMSIFGDITRKFCKDVVSNKKFMKKVQESRFDVIFADAIFPCSELLAELFNIPFVYSLSFSPGYTFEKHSGGFIFPPSYVPVVMSELTDQMTFMERVKNMIYVLYFDFWFEIFDMKKWDQFYSEVLGRPTTLSETMGKADVWLIRNSWNFQFPYPLLPNVDFVGGLHCKPAKPLPKEMEDFVQSSGENGVVVFSLGSMVSNMTEERANVIASALAQIPQKVLWRFDGNKPDTLGLNTRLYKWIPQNDLLGHPKTRAFITHGGANGIYEAIYHGIPMVGIPLFADQPDNIAHMKARGAAVRVDFNTMSSTDLLNALKRVINDPSYKENVMKLSRIQHDQPVKPLDRAVFWIEFVMRHKGAKHLRVAAHDLTWFQYHSLDVIGFLLVCVATVIFIVTKCCLFCFWKFARKAKKGKND"}, "B6": {"name": "UGT 1A8 (Homo sapiens) (protein)", "chain": "GKLLVVPMDGSHWFTMQSVVEKLILRGHEVVVVMPEVSWQLGKSLNCTVKTYSTSYTLEDLDREFMDFADAQWKAQVRSLFSLFLSSSNGFFNLFFSHCRSLFNDRKLVEYLKESSFDAVFLDPFDACGLIVAKYFSLPSVVFARGIACHYLEEGAQCPAPLSYVPRILLGFSDAMTFKERVRNHIMHLEEHLFCQYFSKNALEIASEILQTPVTAYDLYSHTSIWLLRTDFVLDYPKPVMPNMIFIGGINCHQGKPLPMEFEAYINASGEHGIVVFSLGSMVSEIPEKKAMAIADALGKIPQTVLWRYTGTRPSNLANNTILVKWLPQNDLLGHPMTRAFITHAGSHGVYESICNGVPMVMMPLFGDQMDNAKRMETKGAGVTLNVLEMTSEDLENALKAVINDKSYKENIMRLSSLHKDRPVEPLDLAVFWVEFVMRHKGAPHLRPAAHDLTWYQYHSLDVIGFLLAVVLTVAFITFKCCAYGYRKCLGKKGRVKKAHKSKTH"}, "B7": {"name": "UGT 1A10 (Homo sapiens) (protein)", "chain": "GKLLVVPMDGSHWFTMQSVVEKLILRGHEVVVVMPEVSWQLERSLNCTVKTYSTSYTLEDQNREFMVFAHAQWKAQAQSIFSLLMSSSSGFLDLFFSHCRSLFNDRKLVEYLKESSFDAVFLDPFDTCGLIVAKYFSLPSVVFTRGIFCHHLEEGAQCPAPLSYVPNDLLGFSDAMTFKERVWNHIVHLEDHLFCQYLFRNALEIASEILQTPVTAYDLYSHTSIWLLRTDFVLDYPKPVMPNMIFIGGINCHQGKPLPMEFEAYINASGEHGIVVFSLGSMVSEIPEKKAMAIADALGKIPQTVLWRYTGTRPSNLANNTILVKWLPQNDLLGHPMTRAFITHAGSHGVYESICNGVPMVMMPLFGDQMDNAKRMETKGAGVTLNVLEMTSEDLENALKAVINDKSYKENIMRLSSLHKDRPVEPLDLAVFWVEFVMRHKGAPHLRPAAHDLTWYQYHSLDVIGFLLAVVLTVAFITFKCCAYGYRKCLGKKGRVKKAHKSKTH"}, "B8": {"name": "UGT 1A3 (Homo sapiens) (protein)", "chain": "GKVLVVPIDGSHWLSMREVLRELHARGHQAVVLTPEVNMHIKEENFFTLTTYAISWTQDEFDRHVLGHTQLYFETEHFLKKFFRSMAMLNNMSLVYHRSCVELLHNEALIRHLNATSFDVVLTDPVNLCAAVLAKYLSIPTVFFLRNIPCDLDFKGTQCPNPSSYIPRLLTTNSDHMTFMQRVKNMLYPLALSYICHAFSAPYASLASELFQREVSVVDILSHASVWLFRGDFVMDYPRPIMPNMVFIGGINCANRKPLSQEFEAYINASGEHGIVVFSLGSMVSEIPEKKAMAIADALGKIPQTVLWRYTGTRPSNLANNTILVKWLPQNDLLGHPMTRAFITHAGSHGVYESICNGVPMVMMPLFGDQMDNAKRMETKGAGVTLNVLEMTSEDLENALKAVINDKSYKENIMRLSSLHKDRPVEPLDLAVFWVEFVMRHKGAPHLRPAAHDLTWYQYHSLDVIGFLLAVVLTVAFITFKCCAYGYRKCLGKKGRVKKAHKSKTH"}}, "note": "Substitutions are numbered along the chain they refer to. Names may count otherwise."}
{"substrate": "Cc1c(Cl)c(C)[n+]([O-])c(Cl)c1-c1noc(-c2cc(O)c(O)c([N+](=O)[O-])c2)n1", "experiment": "not read", "type": "in vitro ADME, human", "conditions": "other: substrate inhibition fit; pH 7.4; 37.0 °C", "units": {"Km": "µM"}}
{"protein": "B1", "Km": 18.7}
{"protein": "B2", "Km": 27.3}
{"substrate": "Cc1c(Cl)c(C)[n+]([O-])c(Cl)c1-c1noc(-c2cc(O)c(O)c([N+](=O)[O-])c2)n1", "experiment": "cells, lysate or membranes named", "type": "in vitro ADME, human", "conditions": "pH 7.5; 37.0 °C", "units": {"Km": "µM"}}
{"protein": "B3", "Km": 13.7}
{"protein": "B4", "Km": 18}
{"protein": "B5", "Km": 20.6}
{"protein": "B6", "Km": "34.8 ± 9.6"}
{"protein": "B7", "Km": "64.9 ± 23.8"}
{"protein": "B8", "Km": 213}
